Here are results for 11 molecules from patent US20260365696A1, “INHIBITORS OF PTP1B / NCK1 INTERACTION AND METHODS OF MAKING AND USING SAME” (Radella Pharmaceuticals LLC, priority 2023, published 2026).

Where two headings read alike, the source gives them in different places. Non-standard residues stand in square brackets, D forms with d. No end group written: not given here. pGlu = O=C1CC[C@@H](C(=O)O)N1 Bounds are passed on as bounds.

Common to all, as to assay: ITC
(Isothermal titration calorimetry measures the heat released or taken up as one component is titrated into another.)

The target of test [1] is T1, NCK1 SH3-2 domain (human).
T1 chain: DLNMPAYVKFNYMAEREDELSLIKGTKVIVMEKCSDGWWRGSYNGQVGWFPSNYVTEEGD

The target in test [2] is T1, NCK1 SH3-2 domain.
Test [3] deals with T1, NCK1 SH3-2 domain.
Test [4] deals with T1, NCK1 SH3-2 domain.
Test [5] concerns the target T1, NCK1 SH3-2 domain.
Test [6] concerns the target T1, NCK1 SH3-2 domain.
For test [7], the target named is T1, NCK1 SH3-2 domain.

B1: MH047 (peptide)
chain: Ac-APRPPKR-NH2
Consider B1, for which the Kd in the test with NCK1 SH3-2 domain [1], with NCK1 SH3-2 domain [2] and in the test with NCK1 SH3-2 domain [3] was < 300 µM throughout.

B2: MH082 (peptide)
chain: Ac-PAVPPRP-NH2
In the case of B2, the binding result with NCK1 SH3-2 domain [4] is “no binding”.

B3: MH043 (peptide)
chain: EPRPPKR-NH2
modifications: not fully specified (residue 1)
For the molecule B3, the Kd with NCK1 SH3-2 domain [1] was < 300 µM.

B4: MD20 (peptide)
chain: Ac-PRPPKR-NH2
Consider B4, for which the Kd with NCK1 SH3-2 domain [5] was < 193 µM; with NCK1 SH3-2 domain [6] it was < 300 µM; in the test with NCK1 SH3-2 domain [3] it was < 300 µM.

B5: MH044 (peptide)
chain: [pGlu]RPPKR-NH2
Take B5: in the test with NCK1 SH3-2 domain [7], the binding result is “no binding”.

B6: MH046 (peptide)
chain: Ac-PPRPPKR-NHEt
B6: the equilibrium dissociation constant (Kd) with NCK1 SH3-2 domain [1] was < 300 µM.

B7: MH076 (peptide)
chain: Ac-PPRPPKK-NH2
Consider B7, for which the Kd in the test with NCK1 SH3-2 domain [1] is > 1000 µM.

B8: MH081 (peptide)
chain: H-PAVPPRP-NH2
For the molecule B8, the binding result in the test with NCK1 SH3-2 domain [4] was “no binding”.

B9: MD18 (peptide)
chain: Ac-PPRPPKR-NH2
Consider B9, for which the Kd with NCK1 SH3-2 domain [5] was < 193 µM; with NCK1 SH3-2 domain [3], < 300 µM.

B10: MH133 (peptide)
chain: Ac-SPAKGEPSLPEK-NH2
With B10, the binding result with NCK1 SH3-2 domain [4] is reported as “no binding”.

B11: MH075 (peptide)
chain: H-PPRPPKR-NH2
As for B11, the Kd in the test with NCK1 SH3-2 domain [1] is < 300 µM.

A word on the Kd: it is the free concentration of one partner at which half of the binding sites on the other are occupied at equilibrium, for simple one-to-one binding.
